The values below come from publication PMC3193538.

One may read the koff as the rate constant with which the complex falls apart. Low readings indicate slow dissociation, high ones fast dissociation.

[ ]: non-standard residue; d: D form.

The target in the assay is human integrin protein αvβ3 (human) (UniProt P06756). Nature of the assay: SPR. For orientation: SPR reads the build-up and loss of mass on a sensor chip optically.

In the case of cyclo(RGD[dF]C) (also: conjugated to G5 PAMAM dendrimer, 7 peptides per dendrimer) [G5-7RGD (generation 5 PAMAM dendrimer displaying 7 cyclic RGD peptides)], the koff turned out to be 0.00155 s⁻¹.
As to cyclo(RGD[dF]C) (also: conjugated to G5 PAMAM dendrimer, 3 peptides per dendrimer) [G5-3RGD (generation 5 PAMAM dendrimer displaying 3 cyclic RGD peptides)], the koff turned out to be 0.00136 s⁻¹.
For cyclo(RGD[dF]C) (also: conjugated to G5 PAMAM dendrimer, 10 peptides per dendrimer) [G5-10RGD (generation 5 PAMAM dendrimer displaying 10 cyclic RGD peptides)], the dissociation rate constant (koff) was 0.00254 s⁻¹.
The value for cyclo(RGD[dF]C) (also: conjugated to G5 PAMAM dendrimer, 2 peptides per dendrimer) [G5-2RGD (generation 5 PAMAM dendrimer displaying 2 cyclic RGD peptides)] was 0.00132 s⁻¹.
